Consider 10 molecules from US20060025342A1 (OSTEOTROPHIN, published 2006).

In general, IC50 refers to the concentration needed to halve the response being measured. High values mean lower potency, low ones higher potency. Usually Ki stands for a measure of affinity in units of concentration, obtained from inhibition or displacement. The low end stands for a stronger hold on the target, the high end for a looser hold on the target.

Test [1] deals with T1, human PTH/PTHrP receptor (PTH1 receptor) (human, UniProt Q03431 27-593).
T1 sequence (looked up): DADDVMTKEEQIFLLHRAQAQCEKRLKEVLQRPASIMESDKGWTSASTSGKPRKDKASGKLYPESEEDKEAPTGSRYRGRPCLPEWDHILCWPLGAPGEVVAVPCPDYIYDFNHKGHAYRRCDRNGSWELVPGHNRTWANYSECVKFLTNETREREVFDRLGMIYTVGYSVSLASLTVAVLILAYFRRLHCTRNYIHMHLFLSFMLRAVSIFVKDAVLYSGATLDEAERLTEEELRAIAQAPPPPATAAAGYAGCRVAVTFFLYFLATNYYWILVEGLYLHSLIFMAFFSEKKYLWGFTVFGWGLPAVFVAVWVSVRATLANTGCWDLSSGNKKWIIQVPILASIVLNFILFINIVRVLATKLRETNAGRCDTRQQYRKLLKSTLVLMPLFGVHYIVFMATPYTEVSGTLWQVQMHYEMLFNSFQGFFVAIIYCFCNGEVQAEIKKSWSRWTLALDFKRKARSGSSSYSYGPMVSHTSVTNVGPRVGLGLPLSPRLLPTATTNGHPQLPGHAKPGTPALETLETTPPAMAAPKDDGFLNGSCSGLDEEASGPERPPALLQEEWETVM
Briefly: cell-based or functional assay.

The target of test [2] is T1, human PTH/PTHrP receptor (PTH1 receptor). Briefly: competition of 125I-(Tyr36)hPTHrP-(1-36)NH2 binding, SaOS-2 membranes, 30 C, 60 min.
The target is the same in test [3]. Briefly: competition of 125I-(Tyr36)hPTHrP-(1-36)NH2 binding, human renal cortical membranes, 30 C, 30 min.
For test [4] the target is unchanged. Briefly: cell-based or functional assay. This is another data set of the same source.
For test [5] the target is unchanged. Briefly: cell-based or functional assay. The source holds these as a separate data set.
Test [6] shares this target. Briefly: cell-based or functional assay. This is another data set of the same source.
For test [7] the target is unchanged. The test is described as follows: competition of 125I-(Tyr36)hPTHrP-(1-36)NH2 binding, intact SaOS-2 cells, 15 C, 150 min.
Protocol: (§3) Binding studies were conducted at 15° C. in the presence of chymostatin (100 μg/ml) and bacitracin (200 μg/ml). […] The incubation time of 150 min was therefore used for competitive binding studies.
Test [8] deals with T2, canine renal PTH/PTHrP receptor (canine, UniProt Q9TU31 29-595).
T2 construct: whole, on cells; Native receptor in renal cortical membranes of adult mongrel dogs, not intact cells; also called canine renal receptors; receptor in canine renal cortical membranes (CRCM)
T2 sequence (looked up): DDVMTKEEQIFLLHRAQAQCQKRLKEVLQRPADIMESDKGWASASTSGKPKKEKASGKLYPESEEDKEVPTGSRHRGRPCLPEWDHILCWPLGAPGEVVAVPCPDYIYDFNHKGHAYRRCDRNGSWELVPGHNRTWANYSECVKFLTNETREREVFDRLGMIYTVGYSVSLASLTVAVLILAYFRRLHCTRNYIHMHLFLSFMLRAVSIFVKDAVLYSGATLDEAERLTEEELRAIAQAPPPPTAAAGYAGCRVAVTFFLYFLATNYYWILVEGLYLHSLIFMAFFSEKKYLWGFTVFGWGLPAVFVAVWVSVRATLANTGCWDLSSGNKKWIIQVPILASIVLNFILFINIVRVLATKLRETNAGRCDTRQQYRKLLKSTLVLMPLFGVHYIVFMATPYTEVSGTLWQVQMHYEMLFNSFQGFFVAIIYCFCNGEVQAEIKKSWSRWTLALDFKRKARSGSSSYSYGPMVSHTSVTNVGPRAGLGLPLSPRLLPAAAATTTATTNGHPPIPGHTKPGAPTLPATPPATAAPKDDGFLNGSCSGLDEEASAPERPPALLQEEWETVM
The test is described as follows: competition of 125I-[Tyr36]PTHrP-(1-36)amide binding, canine renal cortical membranes, 20 C. How it is done:
(§1) Binding assays were conducted in siliconized 12×75 mm borosilicate glass test tubes at 20° C. in a final volume of 0.2 ml. […] Binding was initiated by adding 50 μg membrane. At the end of the incubation periods described, 50 μl triplicate aliquots were layered onto 300 μl of iced binding buffer containing 1.0% BSA in 500 μl polypropylene tubes. The tubes were centrifuged at approximately 16,000×g for three min at 4° C. in a microcentrifuge. The supernatant was aspirated and the tip of the tube containing the membrane-associated radioligand was cut off. Radioactivity in both the pellet and supernatant was measured.
(§2) Dissociation constants (Kd) were determined by Scatchard analysis of the data obtained from competitive binding experiments using radioligand and increasing concentrations of unlabeled ligand. […] Statistical differences were assessed by paired Student's t test. […] Significance was determined using a partial F-test.

Test [9] addresses T1, human PTH/PTHrP receptor (PTH1 receptor). The test is described as follows: competition of 125I-(Tyr36)hPTHrP-(1-36)NH2 binding, human renal cortical membranes, 30 C, 30 min.
For test [10] the target is unchanged. The test is described as above. This is another data set of the same source.
Test [11] has as its target T2, canine renal PTH/PTHrP receptor. Briefly: competition of 125I-[Nle8,18,Tyr34]hPTH-(1-34)amide binding, canine renal cortical membranes, 20 C. How it is done: as §1, §2
The target is the same in test [12]. The test is described as follows: homologous competition of 125I-[Nle8,18,Tyr34]hPTH-(1-34)amide binding, canine renal cortical membranes, 20 C. How it is done:
as §1, §2

Test [13] has the same target. Briefly: competition of 125I-[Tyr36]PTHrP-(1-36)amide binding, canine renal cortical membranes, 20 C; printed as binding dissociation constant, heterologous competitor (Ki from IC50 by paragraph 214). On the procedure: as §1, §2
Test [14] has as its target T1, human PTH/PTHrP receptor (PTH1 receptor). The test is described as follows: competition of 125I-(Tyr36)hPTHrP-(1-36)NH2 binding, human RCM, SaOS-2 membranes, intact SaOS-2 cells.
Protocol: (§4) Human RCM were added to a final concentration of 90 μg/ml. […] The incubation time of 30 min was used for subsequent equilibrium binding competition studies.
(§5) The binding assay for SaOS-2 membranes was conducted as for human RCM.
as §3
Test [15] concerns the target T2, canine renal PTH/PTHrP receptor. The test is described as follows: cell-based or functional assay.
Test [16] has the same target. Briefly: competition of 125I-[Tyr36]PTHrP-(1-36)amide binding, canine renal cortical membranes, 20 C; Ki from IC50.
Protocol: (§6) Dissociation constants (Kd) were determined by Scatchard analysis of the data obtained from competitive binding experiments using radioligand and increasing concentrations of unlabeled ligand. […] Statistical differences were assessed by paired Student's t test. […] Computer fits of a one- or two-binding site model were compared, indicating the statistically preferred model. Significance was determined using a partial F-test.
(§7) The Kd values were determined by Scatchard analysis, and the Kᵢ values were derived from the IC₅₀ values.
For test [17] the target is unchanged. Briefly: competition of 125I-[Nle8,18,Tyr34]hPTH-(1-34)amide binding, canine renal cortical membranes, 20 C; Ki from IC50.
Protocol: as §6, §7
For test [18], the target named is T1, human PTH/PTHrP receptor (PTH1 receptor). The test is described as follows: competition binding, human RCM and SaOS-2 membranes.
Protocol: as §4, §5
IC₅₀ values for competitive binding experiments and EC₅₀ values for adenylate cyclase dose response curves were determined from the concentration of peptide yielding 50% of the maximal response. Statistical differences were assessed by paired and unpaired two-tailed Student's t test.

Where two headings read alike, the source gives them in different places. Non-standard residues stand in square brackets, D forms with d. No end group written: not given here. Nle = CCCC[C@H](N)C(=O)O Some results are limits rather than exact numbers.

Take “(Tyr^36) chicken (c) PTHrP-(1-36)amide (from UniProt P17251 38-73) (peptide)”: in [1], the Adenylate cyclase (EC50), SaOS cells (intact, 15 C, 60 min) came to 0.8 nM; the Adenylate cyclase (EC50), SaOS membranes turned out to be 0.87 nM; the Adenylate cyclase (EC50), kidney membranes (human RCM) amounted to 0.49 nM. Also, the half-inhibitory concentration (IC50) in [2] was 1.1 nM. Also, the half-inhibitory concentration (IC50) in test [3] was found to be 0.47 nM.

B1: rat PTH-(1-34) (peptide, UniProt P04089 32-65, looked up)
peptide: AVSEIQLMHNLGKHLASVERMQWLRKKLQDVHNF
notes: range 1-34; Synthetic, Bachem; also called rPTH-(1-34); rat (r)PTH-(1-34)
For B1, the “adenylate cyclase potency against hPTHrP-(1-36), human RCM and SaOS-2 membranes” value in test [4] stood at 10 fold. Moreover, in [5], the “Adenylate cyclase (EC50), SaOS membranes” value was 0.09 nM and the “Adenylate cyclase (EC50), kidney membranes (human RCM)” value (“Adenylate cyclase … (human RCM)” below) was 0.05 nM. Further, in [6], the “Adenylate cyclase (EC50), SaOS cells (intact, 15 C, 60 min)” value (shortened to “Adenylate cyclase (EC50), SaOS cells”) was 0.9 nM and the “Adenylate cyclase … (human RCM)” value is 0.05 nM. In test [7], this molecule had an IC50 of 0.9 nM.
On to CQLLHDWGGSIQDL (also called P1-peptide; P1 peptide) [(Cys^5,Trp^11,Gly^13)PTHrP-(5-18)], for which the binding result in test [8] was “no binding”.

B2: Chicken PTH-(1-34)amide (peptide, UniProt P15743 32-65, looked up)
peptide: SVSEMQLMHNLGEHRHTVERQDWLQMKLQDVHSA-NH2
notes: range 1-34; Solid phase synthesis; also called cPTH-(1-34)NH2
For the molecule B2, in test [5], the “Adenylate cyclase (EC50), SaOS membranes” value came to 16.3 nM. Moreover, the “Adenylate cyclase … (human RCM)” value in test [5] and in test [6] was 5.4 nM throughout. Moreover, in test [6], the “Adenylate cyclase (EC50), SaOS cells” value is 3.9 nM. For the same molecule, the half-maximal inhibitory concentration (IC50) in test [2] came to 20 nM; in test [9], 21.5 nM; in test [10] it was 21.5 nM.
On to SPNTKNHPVRFGSDDEGRYLTQETNK (peptide, UniProt P12272 85-110, looked up, range 49-74; Solid phase synthesis) [PTHrP-(49-74)], for which the binding result in test [8] is listed as “no binding”.

B3: [Nle^8,18,Tyr^34]hPTH-(1-34)amide (peptide)
peptide: SVSEIQL[Nle]HNLGKHLNS[Nle]ERVEWLRKKLQDVHNY-NH2
notes: also called NNT-hPTH-(1-34); [Nle^8,18, Tyr^34]hPTH-(1-34)NH2
B3: the “fold more potent than PTHrP-(1-36) in inhibiting binding” value in test [11] is below 2 fold. The Ki in test [12] is 7.5 nM; in test [13], 8.5 nM.
For RATSEVSPNSKPSPNTKNHPVRFGSDDEGRYLTQETNK (peptide, UniProt P12272 73-110, looked up, range 73-110; Solid phase synthesis) [hPTHrP-(37-74)], the binding result in test [14] is “no binding”.
SVSEIQL[Nle]HNLGKHLNS[Nle]ERVEWLRKKLQDVHNY [(Nle^8,18, Tyr^34)hPTH-(1-34)]: the “Adenylate cyclase (EC50), SaOS membranes” value in test [5] is 1.9 nM. Further, the “Adenylate cyclase … (human RCM)” value in test [5] and in test [6] was 1.1 nM each time. Moreover, the “Adenylate cyclase (EC50), SaOS cells” value in test [6] was 2.3 nM. Also, the IC50 in test [2] was 2 nM; in [7], 2.8 nM; in test [9] it was 3.6 nM; in test [10] it was 3.6 nM.

B4: bovine PTH-(1-34) (peptide, UniProt P01268 32-65, looked up)
peptide: AVSEIQFMHNLGKHLSSMERVEWLRKKLQDVHNF
notes: range 1-34; Synthetic, Bachem; also called bPTH-(1-34); bovine (b)PTH-(1-34)
With B4, the “adenylate cyclase potency against PTHrP-(1-36), standard assay (30 min, 30 C)” value in [15] worked out at 6 fold. The “adenylate cyclase stimulation against PTHrP-(1-36), binding assay conditions (20 C, 20 min, bacitracin)” value in test [15] came out at 15 fold. Also, the “Adenylate cyclase (EC50), SaOS membranes” value in [5] stood at 0.5 nM. The “Adenylate cyclase (EC50), SaOS cells” value in test [6] turned out to be 1.2 nM. In addition, the inhibitory constant (Ki) in test [16] stood at 10.5 nM; in test [17] it was 6.1 nM.

B5: bPTH-(1-84) (ligand, bovine, UniProt P01268 32-115, looked up)
chain: AVSEIQFMHNLGKHLSSMERVEWLRKKLQDVHNFVALGASIAYRDGSSQRPRKKEDNVLVESHQKSLGEADKADVDVLIKAKPQ
notes: range 1-84; From the National Hormone and Pituitary Program (NIDDK); also called bovine PTH-(1-84)
On to B5, for which the “Adenylate cyclase (EC50), SaOS membranes” value in [5] worked out at 2.4 nM. Also, the “Adenylate cyclase … (human RCM)” value in test [5] and in test [6] was 0.59 nM each time. In addition, the “Adenylate cyclase (EC50), SaOS cells” value in [6] is 7.7 nM. In test [18], the “fold lower relative affinity than the amino-terminal analogs” value was around 10 fold. Besides, the IC50 in [2] was found to be 8 nM; in test [7], 17.5 nM; in test [9], 5.1 nM; in test [10] it was 5.1 nM.
